What was measured:
MD2-GFP [1] = target: MD2-GFP (UniProt Q9Y6Y9); assay: MST; secreted MD2-GFP in the culture supernatant of transfected 293 cells grown in suspension; CnB titrated in 16 1:1 dilutions
[2] = target: CD14-GFP (full-length membrane-anchored CD14 from transfected HEK293 lysates) (UniProt P08571); assay: MST; GFP-tagged receptors in lysates of transfected HEK293 cells (RIPA buffer), diluted according to fluorescence intensity; CnB titrated in 16 1:1 dilutions; 25 °C
MD2-GFP [3] = target: MD2-GFP (UniProt Q9Y6Y9); assay: as above
[4] = target: TLR4-GFP (full-length TLR4 from transfected HEK293 lysates) (UniProt O00206); assay: as above
Sequence of TLR4-GFP (full-length TLR4 from transfected HEK293 lysates) (O00206 24-839): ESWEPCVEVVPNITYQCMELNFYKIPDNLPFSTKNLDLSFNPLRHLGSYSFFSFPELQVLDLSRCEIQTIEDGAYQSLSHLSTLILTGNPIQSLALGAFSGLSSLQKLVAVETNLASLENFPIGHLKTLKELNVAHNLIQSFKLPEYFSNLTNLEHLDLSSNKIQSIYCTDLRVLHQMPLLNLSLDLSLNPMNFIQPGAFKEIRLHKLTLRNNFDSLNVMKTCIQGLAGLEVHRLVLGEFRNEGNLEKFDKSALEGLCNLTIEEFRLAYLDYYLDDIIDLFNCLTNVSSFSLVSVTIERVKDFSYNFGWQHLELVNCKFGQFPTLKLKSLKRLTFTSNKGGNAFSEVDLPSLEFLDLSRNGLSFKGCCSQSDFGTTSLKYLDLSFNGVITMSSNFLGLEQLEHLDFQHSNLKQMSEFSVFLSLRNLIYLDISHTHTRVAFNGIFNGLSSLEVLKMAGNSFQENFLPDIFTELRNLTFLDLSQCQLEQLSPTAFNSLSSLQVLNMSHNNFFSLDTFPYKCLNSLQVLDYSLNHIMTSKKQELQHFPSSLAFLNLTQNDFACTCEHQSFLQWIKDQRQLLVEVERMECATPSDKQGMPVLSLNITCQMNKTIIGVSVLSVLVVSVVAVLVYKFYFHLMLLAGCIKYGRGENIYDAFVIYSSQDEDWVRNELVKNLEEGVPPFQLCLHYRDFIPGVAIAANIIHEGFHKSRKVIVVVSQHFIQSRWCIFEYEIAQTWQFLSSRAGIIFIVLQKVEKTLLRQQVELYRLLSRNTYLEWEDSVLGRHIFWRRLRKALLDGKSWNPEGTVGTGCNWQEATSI

Sequence of recombinant calcineurin B (P63098 whole entry): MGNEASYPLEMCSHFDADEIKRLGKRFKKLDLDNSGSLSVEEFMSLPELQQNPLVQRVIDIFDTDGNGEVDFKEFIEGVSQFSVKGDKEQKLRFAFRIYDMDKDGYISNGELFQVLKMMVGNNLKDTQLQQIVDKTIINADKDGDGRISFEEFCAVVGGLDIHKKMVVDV
Sequence of MD2-GFP (Q9Y6Y9 19-160): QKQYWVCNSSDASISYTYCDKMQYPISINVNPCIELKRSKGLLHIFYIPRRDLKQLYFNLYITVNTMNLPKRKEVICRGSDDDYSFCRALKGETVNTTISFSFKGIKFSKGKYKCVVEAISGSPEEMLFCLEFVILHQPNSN
Sequence of CD14-GFP (full-length membrane-anchored CD14 from transfected HEK293 lysates) (P08571 20-367): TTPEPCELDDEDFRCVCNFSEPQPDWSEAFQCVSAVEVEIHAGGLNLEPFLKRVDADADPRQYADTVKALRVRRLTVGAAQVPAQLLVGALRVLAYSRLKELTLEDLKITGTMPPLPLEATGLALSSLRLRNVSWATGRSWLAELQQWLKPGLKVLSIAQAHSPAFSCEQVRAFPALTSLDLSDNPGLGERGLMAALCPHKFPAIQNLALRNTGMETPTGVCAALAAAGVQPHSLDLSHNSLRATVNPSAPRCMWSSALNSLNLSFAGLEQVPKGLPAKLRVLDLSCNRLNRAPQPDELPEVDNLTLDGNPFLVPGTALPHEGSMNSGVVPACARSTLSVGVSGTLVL

A Kd (MD2-GFP [1]) of 74 µM, a Kd [2] of 34.8 µM and a Kd (MD2-GFP [3]) of 7.43 µM were found for “recombinant calcineurin B (from UniProt P63098 1-170) (natural protein; other documents disagree on this pair)” in this work. It also gave a Kd [4] of 6.5 µM.

Reference: publication PMC4835703
